{"source": "patent US20100035280A1", "about": "(Chugai, published 2010)", "key": {"[1]": {"biological_target": "T1, human desmoglein 3 (DSG3) (human, UniProt P32926 50-999)", "T1 construct": "Full-length DSG3 gene stably expressed on CHO DG44 cells (DSG3-DG44) for flow cytometry; also called DSG3-DG44 cells; DSG3-Ba/F3 cells", "T1 sequence": "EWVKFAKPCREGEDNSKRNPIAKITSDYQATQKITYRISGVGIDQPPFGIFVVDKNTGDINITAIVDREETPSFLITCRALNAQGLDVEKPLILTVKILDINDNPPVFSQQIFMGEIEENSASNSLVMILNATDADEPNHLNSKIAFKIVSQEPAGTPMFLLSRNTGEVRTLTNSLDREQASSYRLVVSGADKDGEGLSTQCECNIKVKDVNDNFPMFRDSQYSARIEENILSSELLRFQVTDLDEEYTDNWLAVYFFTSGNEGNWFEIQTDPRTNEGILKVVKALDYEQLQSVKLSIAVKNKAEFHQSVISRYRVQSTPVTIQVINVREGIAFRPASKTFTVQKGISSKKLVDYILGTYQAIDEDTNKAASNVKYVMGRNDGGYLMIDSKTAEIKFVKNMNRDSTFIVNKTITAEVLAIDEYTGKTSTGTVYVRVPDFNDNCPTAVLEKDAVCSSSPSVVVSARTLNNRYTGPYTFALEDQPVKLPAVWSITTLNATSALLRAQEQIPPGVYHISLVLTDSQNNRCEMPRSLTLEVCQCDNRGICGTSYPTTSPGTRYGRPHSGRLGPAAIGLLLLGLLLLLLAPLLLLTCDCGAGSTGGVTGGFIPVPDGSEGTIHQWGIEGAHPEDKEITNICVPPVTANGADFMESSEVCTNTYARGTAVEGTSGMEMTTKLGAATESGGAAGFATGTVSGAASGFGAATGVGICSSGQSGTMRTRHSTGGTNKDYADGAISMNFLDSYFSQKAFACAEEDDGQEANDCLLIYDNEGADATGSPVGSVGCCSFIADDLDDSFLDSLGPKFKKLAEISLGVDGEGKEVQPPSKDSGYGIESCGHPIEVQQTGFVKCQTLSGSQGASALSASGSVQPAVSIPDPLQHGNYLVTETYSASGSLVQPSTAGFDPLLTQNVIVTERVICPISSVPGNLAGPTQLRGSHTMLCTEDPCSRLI", "assay": "flow cytometry screening on DSG3-DG44 cells", "procedure": "Binding of the DF366 antibody to DSG3-DG44 cells was detected by flow cytometry. 5×10⁴ cells of DSG3-DG44 was reacted with 3 μg/mL of DF366 antibody on ice for 30 minutes, and then washed. Then, this was reacted with an FITC-labeled anti-mouse IgG antibody (Beckman Coulter) as the secondary antibody on ice for 30 minutes, washed, and then subjected to flow cytometry. FACS Calibur (Becton Dickinson) was used as the flow cytometer. The DF366 antibody bound to DSG3-DG44 cells, but not to the parental DG44 cells. Therefore, the DF366 antibody was confirmed to bind specifically to DSG3."}, "[2]": {"biological_target": "T1, human desmoglein 3 (DSG3)", "assay": "flow cytometry, FITC anti-mouse IgG secondary antibody", "procedure": "(§1) Binding of the DF366c antibody to DSG3-DG44 cells and DG44 cells was detected by flow cytometry. 3×10⁴ cells were reacted with 10 μg/mL of DF366c antibody on ice for one hour, and then washed. Then, this was reacted with an FITC-labeled anti-human IgG antibody (Beckman Coulter) as the secondary antibody on ice for one hour, washed, and then subjected to flow cytometry. FACS Calibur (Becton Dickinson) was used as the flow cytometer. DF366c antibody bound to DSG3-DG44 cells, but not to the parental DG44 cells. Therefore, the DF366c antibody was confirmed to bind specifically to DSG3.\nThe pMCD/G2a-DF366 and pMCN/k-DF366 plasmids were introduced into DG44 cells by electroporation. The CHO DF366m-DG44 cells, which stably express the mouse IgG2a chimeric DF366 antibody (DF366m) were established by selection in a nucleic acid (HT supplement)-free medium containing 500 μg/mL of Geneticin. Subsequently, the DF366m antibody was purified from the culture supernatant of DF366m-DG44 using a Hi Trap Protein G HP column. The solvent was substituted with PBS using a PD-10 column. The concentration of the DF366m antibody purified was quantified using a DC Protein Assay kit. The DF366m antibody was subjected to flow cytometric analysis to confirm that the antibody specifically binds to DSG3 in the same way as the DF366c antibody. […]"}, "[3]": {"biological_target": "T1, human desmoglein 3 (DSG3)", "assay": "flow cytometry, 10 µg/mL antibody on DSG3-DG44 CHO cells", "procedure": "as §1"}}, "data": [{"binder": "DF366 antibody (antibody, V domains shown, Mouse monoclonal antibody purified from hybridoma supernatant; also called anti-DSG3 antibody; anti-human desmoglein 3 antibody) VH: EVQLQQSGPELVKPGASVKISCKASGYTFTDYNMDWVKQSHGESLEWIGYIYPNNGGSGYNQKFKSKATLTVDKSSSTAYMELHSLTSEDSAVYYCARRDSYYGFDMAWFAYWGQGTLVTVSA VL: DIQMTQSPASLSASVGETVTITCRPSENIYNNLAWYQQKQGKSPQLLVYVATNLAEGVPSRFSGSGSGTRFSLKINSLQPEDFGKYYCQHSYGTPWTFGGGTKLEIK", "values": [{"measurement": "binding result", "setting": "[1]", "result": "binds"}]}, {"binder": "mouse IgG2a chimeric DF366 antibody (DF366m) (antibody, DF366 variable regions on mouse IgG2a/kappa constant regions, made in CHO DG44 cells; The full-length entries may include a signal peptide; also called DF366m antibody) heavy: EVQLQQSGPELVKPGASVKISCKASGYTFTDYNMDWVKQSHGESLEWIGYIYPNNGGSGYNQKFKSKATLTVDKSSSTAYMELHSLTSEDSAVYYCARRDSYYGFDMAWFAYWGQGTLVTVSAAKTTAPSVYPLAPVCGDTTGSSVTLGCLVKGYFPEPVTLTWNSGSLSSGVHTFPAVLQSDLYTLSSSVTVTSSTWPSQSITCNVAHPASSTKVDKKIEPRGPTIKPCPPCKCPAPNLLGGPSVFIFPPKIKDVLMISLSPIVTCVVVDVSEDDPDVQISWFVNNVEVHTAQTQTHREDYNSTLRVVSALPIQHQDWMSGKEFKCKVNNKDLPAPIERTISKPKGSVRAPQVYVLPPPEEEMTKKQVTLTCMVTDFMPEDIYVEWTNNGKTELNYKNTEPVLDSDGSYFMYSKLRVEKKNWVERNSYSCSVVHEGLHNHHTTKSFSRTPGK light: DIQMTQSPASLSASVGETVTITCRPSENIYNNLAWYQQKQGKSPQLLVYVATNLAEGVPSRFSGSGSGTRFSLKINSLQPEDFGKYYCQHSYGTPWTFGGGTKLEIKRADAAPTVSIFPPSSEQLTSGGASVVCFLNNFYPKDINVKWKIDGSERQNGVLNSWTDQDSKDSTYSMSSTLTLTKDEYERHNSYTCEATHKTSTSPIVKSFNRNEC", "values": [{"measurement": "binding result", "setting": "[2]", "result": "binds"}]}, {"binder": "human IgG1 chimeric DF366 antibody (DF366c) (antibody, Mouse DF366 variable regions on human IgG1/kappa constant regions, made in CHO DG44 cells; The full-length entries may include a signal peptide; also called DF366c antibody) heavy: not shown light: DIQMTQSPASLSASVGETVTITCRPSENIYNNLAWYQQKQGKSPQLLVYVATNLAEGVPSRFSGSGSGTRFSLKINSLQPEDFGKYYCQHSYGTPWTFGGGTKLEIKRTVAAPSVFIFPPSDEQLKSGTASVVCLLNNFYPREAKVQWKVDNALQSGNSQESVTEQDSKDSTYSLSSTLTLSKADYEKHKVYACEVTHQGLSSPVTKSFNRGEC", "values": [{"measurement": "binding result", "setting": "[3]", "result": "binds"}]}]}
